Key:
[1] = molecular target: tau4R, the microtubule-binding region with R1-R4, labelled with Alexa Fluor 488 (human (by the printed UniProt entry)); assay: fluorescence correlation spectroscopy (FCS); ~20 nM fluorescent protein (Alexa 488-labelled tau construct or eGFP) with unlabelled αS seeds at 20, 60 or 100 nM (monomer units); 20°C; 50 mM Na2HPO4, 50 mM NaCl pH 7.0; two-component diffusion fit, medians of type III curves
[2] = molecular target: tau_(1N4R), full-length 1N4R tau, labelled with Alexa Fluor 488 (human (by the printed UniProt entry)); assay: as above

αS_(1-100) seeds (sonicated fibrils of N-terminally acetylated αS_(1-100)) (from UniProt P37840 1-100) (complex)
Q (brightness of bound tau relative to monomer tau) at 20 nM αS (1-100) seeds [1]: 1 | Q (brightness of bound tau relative to monomer tau) at 60 nM αS (1-100) seeds [1]: 1 | Q (brightness of bound tau relative to monomer tau) at 100 nM αS (1-100) seeds [1]: 1 | median fB (fraction of tau with τD2) at 20 nM αS (1-100) seeds [1]: 0.023 | median fB (fraction of tau with τD2) at 60 nM αS (1-100) seeds [1]: 0.11 | median fB (fraction of tau with τD2) at 100 nM αS (1-100) seeds [1]: 0.11 | median type III τ (D2app) at 20 nM αS (1-100) seeds [1]: 2.1 ms | median type III τ (D2app) at 60 nM αS (1-100) seeds [1]: 1.8 ms | median type III τ (D2app) at 100 nM αS (1-100) seeds [1]: 2.8 ms | Q (brightness of bound tau relative to monomer tau) at 20 nM αS (1-100) seeds [2]: 2.3 | Q (brightness of bound tau relative to monomer tau) at 60 nM αS (1-100) seeds [2]: 2 | Q (brightness of bound tau relative to monomer tau) at 100 nM αS (1-100) seeds [2]: 2.7 | median fB (fraction of tau with τD2) at 20 nM αS (1-100) seeds [2]: 0.055 | median fB (fraction of tau with τD2) at 60 nM αS (1-100) seeds [2]: 0.053 | median fB (fraction of tau with τD2) at 100 nM αS (1-100) seeds [2]: 0.16 | median type III τ (D2app) at 20 nM αS (1-100) seeds [2]: 2.8 ms | median type III τ (D2app) at 60 nM αS (1-100) seeds [2]: 2.3 ms | median type III τ (D2app) at 100 nM αS (1-100) seeds [2]: 2.2 ms

Reference: article PMC11386428
